Assay results from patent US20240025993A1, “CD19 BINDING MOLECULES AND USES THEREOF” (NOVARTIS AG, priority 2020, published 2024).

B1: GADAPA-IgG1: anti-CD3 IgG1 with G237A/D265A/P329A (antibody)
heavy: EVQLVESGGGLVQPGGSLKLSCAASGFTFNTYAMNWVRQASGKGLEWVGRIRSKYNNYATYYADSVKDRFTISRDDSKSTLYLQMNSLKTEDTAVYYCVRHGNFGNSYVSWFAYWGQGTLVTVSSASTKGPSVFPLAPSSKSTSGGTAALGCLVKDYFPEPVTVSWNSGALTSGVHTFPAVLQSSGLYSLSSVVTVPSSSLGTQTYICNVNHKPSNTKVDKRVEPKSCDKTHTCPPCPAPELLGAPSVFLFPPKPKDTLMISRTPEVTCVVVAVSHEDPEVKFNWYVDGVEVHNAKTKPREEQYNSTYRVVSVLTVLHQDWLNGKEYKCKVSNKALAAPIEKTISKAKGQPREPQVYTLPPSRDELTKNQVSLTCLVKGFYPSDIAVEWESNGQPENNYKTTPPVLDSDGSFFLYSKLTVDKSRWQQGNVFSCSVMHEALHNHYTQKSLSLSPGK
light: QAVVTQEPSLTVSPGGTVTLTCRSSTGAVTTSNYANWVQQKPGQAPRGLIGGTNKRAPWTPARFSGSLLGDKAALTLSGAQPEDEAEYFCALWYSNLWVFGGGTKLTVLGQPKAAPSVTLFPPSSEELQANKATLVCLISDFYPGAVTVAWKADSSPVKAGVETTTPSKQSNNKYAASSYLSLTPEQWKSHRSYSCQVTHEGSTVEKTVAPTECS
B2: CD3hi TSP1C: TBM corresponding to CD3hi TSP1 but with a lysozyme binding arm in place of the CD19 binding arm; control antibody (antibody)
heavy: QVQLQQSGPGLVKPSQTLSLTCAISGDSVSSNSAAWSWIRQSPGRGLEWLGRIYYRSKWYNDYAVSVKSRITINPDTSKNQFSLQLNSVTPEDTAVYYCARLDHRYHEDTVYPGMDVWGQGTLVTVSSASTKGPSVFPLAPSSKSTSGGTAALGCLVKDYFPEPVTVSWNSGALTSGVHTFPAVLQSSGLYSLSSVVTVPSSSLGTQTYICNVNHKPSNTKVDKRVEPKSCGGGGSGGGGSEVQLVESGGGLVQPGGSLKLSCAASGFTFNTYAMNWVRQASGKGLEWVGRIRSKYNNYATYYADSVKDRFTISRDDSKSTLYLQMNSLKTEDTAVYYCVRHGNFGNSYVSWFAYWGQGTLVTVSSGGGGSGGGGSGGGGSGGGGSQAVVTQEPSLTVSPGGTVTLTCRSSTGAVTTSNYANWVQQKPGQAPRGLIGGTNKRAPWTPARFSGSLLGDKAALTLSGAQPEDEAEYFCALWYSNLWVFGGGTKLTVLGGGGSDKTHTCPPCPAPELLGGPSVFLFPPKPKDTLMISRTPEVTCVVVAVSHEDPEVKFNWYVDGVEVHNAKTKPREEQYASTYRVVSVLTVLHQDWLNGKEYKCKVSNKALAAPIEKTISKAKGQPREPQVCTLPPSREEMTKNQVSLSCAVKGFYPSDIAVEWESNGQPENNYKTTPPVLDSDGSFFLVSKLTVDKSRWQQGNVFSCSVMHEALHNHYTQKSLSLSPGK
light: DIELTQPPSVSVAPGQTARISCSGDNLPAYTVTWYQQKPGQAPVLVIYDDSDRPSGIPERFSGSNSGNTATLTISGTQAEDEADYYCASWDPSSGVVFGGGTKLTVLGQPKAAPSVTLFPPSSEELQANKATLVCLISDFYPGAVTVAWKADSSPVKAGVETTTPSKQSNNKYAASSYLSLTPEQWKSHRSYSCQVTHEGSTVEKTVAPTECS
chain: SQQIYGVVYGNVTFHVPSNVPLKEVLWKKQKDKVAELENSEFRAFSSFKNRVYLDTVSGSLTIYNLTSSDEDEYEMESPNITDTMKFFLYVLESGGGGSDKTHTCPPCPAPELLGGPSVFLFPPKPKDTLMISRTPEVTCVVVAVSHEDPEVKFNWYVDGVEVHNAKTKPREEQYASTYRVVSVLTVLHQDWLNGKEYKCKVSNKALAAPIEKTISKAKGQPREPQVYTLPPCREEMTKNQVSLWCLVKGFYPSDIAVEWESNGQPENNYKTTPPVLDSDGSFFLYSKLTVDKSRWQQGNVFSCSVMHEALHNHYTQKSLSLSPGK

Assays:
human FcγR1A = human FcγR1A (Homo sapiens, UniProt P12314); test: SPR binding of Fc modified anti-CD3 IgG1 antibodies (Example 34); details: anti-CD3 IgG1 antibody immobilized
Protocol: Surface plasmon resonance (SPR) experiments were performed to analyze the interaction of human activating receptors FcγR1A, FcγR3A (V158) and human C1q with IgG1 WT and antibody-Fc variants. Binding kinetics and their relative binding affinities were explored. The binding affinity is an important characteristic of an interaction between an antibody and an antigen. The equilibrium dissociation constant (KD) defines how strong the interaction is and therefore how much antibody-antigen complex is formed at equilibrium.
The knowledge of the antibody characteristics is not only essential during selection of the best therapeutic antibody candidate, but also important to understand the in vivo behavior and potentially predict cellular immune responses. […] Binding to human C1q was evaluated. […] SPR measurements were measured on a Biacore T200 (GE-Healthcare Life Sciences) controlled by Biacore T200 control software version 2.0.1. […]
The antibodies were covalently immobilized on a CM5 sensor chip whereas Fc gamma receptors or human C1q served as analytes in solution (FIG. 38). […] Zero concentration samples (blank runs) were measured for both methods to allow double-referencing during data evaluation.
Data were evaluated using the Biacore T200 evaluation software. […] In addition, the maximum response reached during the experiment was monitored. […]

[1] = Differential scanning calorimetry, melting temperature of Fc modified anti-CD3 antibodies (Example 35); type: physicochemical; details: DSC, 1 mg/ml in PBS pH 7.4, anti-CD3 IgG1 Fc variants
Protocol: Calorimetric measurements were carried out on a differential scanning micro calorimeter (Nano DSC, TA instruments). The cell volume was 0.5 ml and the heating rate was 1° C./min. All proteins were used at a concentration of 1 mg/m in PBS (pH 7.4). The molar heat capacity of each protein was estimated by comparison with duplicate samples containing identical buffer from which the protein had been omitted. The partial molar heat capacities and melting curves were analyzed using standard procedure. Thermograms were baseline corrected and concentration normalized.

[2] = Aggregation propensity (% HMW) by analytical SEC of IgG1 anti-CD3 antibody and Fc variants (Example 35); type: physicochemical; details: PBS pH 7.4, anti-CD3 antibodies
Protocol: Size exclusion chromatography measurements were performed to evaluate the aggregation propensity (% HMW) of IgG1 antibody and Fc modified derivatives. The produced and purified anti CD3 antibodies were applied to an analytical size exclusion chromatography column (SEC 200, GE Healthcare), equilibrated with PBS buffer pH 7.4.

[3] = system: Jurkat NFAT luciferized (JNL) cells with THP-1 cells; test: Anti-CD3 NFAT signalling assay, JNL + THP-1 cells (Example 36); type: cell-based, human; details: THP-1 cells preincubated with IFNg (100 u/mL, 48 hours)
Protocol: Jurkat reporter gene assay (RGA) for the nuclear factor of activated T-cells (NFAT) pathway was performed using Jurkat NFAT luciferized (JNL) cells and THP-1 cells (ATCC, TIB202). THP-1 cells express FcγRI, FcγRII, and FcγRIII. Cells were co-incubated for 6 hours at 37° C., 5% CO2 at a 5:1 effector to tumor ratio with each sample at the various concentrations depicted. An equal volume of ONE-Glo™ reagent (Promega, E6110) was added to the culture volume. Plate was shaken for 2 minutes, then incubated for an additional 8 minutes protected from light. For JNL+ THP+IFNg experiment, THP-1 cells were pre-treated with 100 u/mL IFNg for 48 hours at 37° C., 5% CO2 before co-culture. IFNg stimulation increases FcγRI expression. Luciferase activity was quantitated on the EnVision plate reader (PerkinElmer). Data was analyzed and fit to a 5 parameter-logistic curve using GraphPad Prism.

[4] = system: T cells co-cultured with OCI-LY-19, Karpas422 or Toledo target cells; test: TBM and BBM mediated T cell proliferation (Example 20); type: cell-based, human; details: OCI-LY-19, Karpas422, Toledo co-culture; E:T 1:3, 96 hrs, 2.5 nM-0.0006 nM; H variants
Protocol: Briefly, OCI-LY-19, Karpas422, and Toledo target cells stably expressing firefly luciferase were plated in a 96 well plate in T Cell Media (TCM) (RPMI-1640, ThermoFisher Scientific, Cat #11875-085), 10% FBS (Seradigm, Cat #1500-500), 1% L-Glutamine (Thermo Fisher Scientific, Cat #25830-081), 1% Non Essential Amino Acids (Thermo Fisher Scientific, Cat #11140-050),1% Pen/Strep (Thermo Fisher Scientific, Cat #15070063), 1% HEPES (Thermo Fisher Scientific, Cat #15630080), Sodium Pyruvate (Thermo Fisher Scientific, Cat #11360-070), 0.1% Beta-mercaptoethanol (Thermo Fisher Scientific, Cat #21985-023)]. PBMCs previously isolated and cryopreserved from 2 Leukopak donors were thawed and Pan T cells were isolated (as described earlier). Isolated T cells were labelled with 5 μM Cell Trace Violet (CTV) (Thermo Fisher Scientific, Cat #C34557) following the manufacturer's protocol and were co-cultured with target cells at an E:T ratio of 1:3. A dilution series of CD3med TSP1, CD3hi TSP1, CD3hi BSP1, CD3hi TSP1C, and blinatumomab ranging from 2.5 nM-0.0006 nM was added to cells and the plates were incubated in a 5% CO2, 37° C. incubator for 96 hrs. […]

Chain of human FcγR1A (P12314 16-374): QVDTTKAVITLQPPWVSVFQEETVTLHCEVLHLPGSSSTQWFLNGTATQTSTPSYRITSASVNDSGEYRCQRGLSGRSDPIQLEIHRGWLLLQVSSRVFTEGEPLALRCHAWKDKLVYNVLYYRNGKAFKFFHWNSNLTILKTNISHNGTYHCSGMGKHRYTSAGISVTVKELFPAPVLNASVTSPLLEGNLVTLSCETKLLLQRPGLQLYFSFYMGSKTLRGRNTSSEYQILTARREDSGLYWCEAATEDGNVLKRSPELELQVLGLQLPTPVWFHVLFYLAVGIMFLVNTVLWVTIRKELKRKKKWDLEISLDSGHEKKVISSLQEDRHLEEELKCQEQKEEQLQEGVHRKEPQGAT

| Molecule | Maximum response at 100 nM hFcgammaRIA (RU) (human FcγR1A) | Melting temperature (Tm) of CH2 domain [1] [°C] | (%) higher molecular weight [2] [%] | NFAT activity (T-cell activation) [3] | T cell proliferation (% proliferated CD3+ T cells) [4] |
| --- | --- | --- | --- | --- | --- |
| B1 | 16 | 65 | 8.0 | some activity remaining | – |
| B2 | – | – | – | – | did not induce any T cell proliferation |
